The series can be described thus: analytical gel filtration (Superdex200), apparent molecular weight. In kind it is physicochemical. From the text:
In the fusion protein of GLP-1(A8G/G22E)-Fn8-COL18NC1 described in example 4, the flexible unstructured linker between Fn8 and COL18NC1 contains six residues (GGGSGG; SEQ ID NO:89). To generate the flexible un-structured linkers with different lengths, we have synthesized the genes GLP-1(A8G/G22E/R36S)-Fn8-COL18NC1-20, GLP-1(A8G/G22E/R36S)-Fn8-COL18NC1-30, GLP-1(A8G/G22E/R36S)-Fn8-COL18NC1-54 and GLP-1(A8G/G22E/R36S)-Fn8-COL18NC1-60. In these genes, the length of the flexible unstructured polypeptide linker between Fn8 and COL18NC1 contained 20, 30, 54 and 60 residues, respectively. The protein sequences of GLP-1(A8G/G22E/R36S)-Fn8-COL18NC1-20, GLP-1(A8G/G22E/R36S)-Fn8-COL18NC1-30, GLP-1(A8G/G22E/R36S)-Fn8-COL18NC1-54 and GLP-1(A8G/G22E/R36S)-Fn8-COL18NC1-60 are listed as SEQ ID NO:8-11. The synthetic genes of GLP-1(A8G/G22E/R36S)-Fn8-COL18NC1-20, GLP-1(A8G/G22E/R36S)-Fn8-COL18NC1-30, GLP-1(A8G/G22E/R36S)-Fn8-COL18NC1-54 and GLP-1(A8G/G22E/R36S)-Fn8-COL18NC1-60 were grafted to the pET29b by NdeI and XhoI for protein expressions. The expression and purification of these fusion proteins were carried out using similar protocols described in example 3. To estimate the hydrodynamic radius and/or the Rg of the fusion proteins, the purified proteins were loaded on an analytical gel filtration column Superdex200 (GE Healthcare).
Moreover, the flexible unstructured linker between the therapeutic polypeptide and the scaffold protein may adjust the hydrodynamic radius and/or the Rg of the fusion molecule in a tunable manner.
The apparent molecular weights of the fusion proteins were estimated by use of an analytical gel filtration column Superdex-200 (GE Healthcare) mounted on the AKTA FPLC system (GE Healthcare). The purified fusion proteins GLP-1-Fn8, GLP-1-Fn8-COL18NC1, GLP-1(A8G/G22E/R36G)-Fn8-p246-COL18NC1 were loaded on the Superdex200 column. GLP-1-Fn8 is a fusion protein of GLP-1 and Fn8 and contains the first 144 amino acid residues of the fusion protein GLP-1-Fn8-COL18NC1 (SEQ ID NO:2). […] The genuine molecular weights for the fusion proteins GLP-1-Fn8 monomer, GLP-1-Fn8-COL18NC1 trimer, and GLP-1(A8G/G22E/R36G)-Fn8-p246-COL18NC1 trimer were ˜15 Kd, 65 Kd and 123Kd, respectively.

From patent publication US10246503B2, “Method of improving the pharmacokinetic profile of a therapeutic polypeptide and the use thereof” (BEIJING ANXINHUAIDE BIOTECH. CO., LTD, priority 2012, dated 2019) come the findings set out here.

B1: GLP1(A8G/G22E/R36G)-Fn8-p246-COL18NC1: GLP-1 mutant, Fn8, pCloud p246, COL18NC1 fusion; SEQ ID NO: 16 (protein)
chain: HGEGTFTSDVSSYLEEQAAKEFIAWLVKGGGSGGGSGGGSGGGSGGGSGSGGAVPPPTDLRFTNIGPDTMRVTWAPPPSIDLTNFLVRYSPVKNEEDVAELSISPSDNAVVLTNLLPGTEYVVSVSSVYEQHESTPLRGRQKTGGGGSGGGSGSGSESGSGGGSTSSGTGSETESPGSGSESGSGPSSAGSGSGSESGSGSGSSGPGSTGGSGSESGSGPGSSGTGGTATGSGSESGSGPGSSGPGSTGSGSGSESGSGSGSSGTGSTGGSGSESGSGPGSPRPGSTGTGSGSESGSGPGSSERGSAGGSGSESGSGTSESSASGSTGGSGSESGSGSESGSGSGSESGSGPESPGSGGSGSESGSGTSGSTGSGSESGSGGGSGGGSGGGASSGVRLWATRQAMLGQVHEVPEGWLIFVAEQEELYVRVQNGFRKVQLEARTPLPRG
Regarding B1, the apparent molecular weight is listed as approximately 550 Kd.
